According to the supplement of paper PMC12667976:
± gives the standard error.

B1: library; numbered along this chain (parent)
chain: MATDAALRRLLRLHRTEIAVAVDSAFPLLHALADHDVVPEDKFQETLHLKEKEGCPQAFHALLSWLLTQDSTAILDFWRVLFKDYNLERYGRLQPILDSFPKDVDLSQPRKGRKPPAVPKALVPPPRLPTKRKASEEARAAAPAALTPRGTASPGSQLKAKPPKKPESSAEQQRLPLGNGIQTMSASVQRAVAMSSGDVPGARGAVEGILIQQVFESGGSKKCIQVGGEFYTPSKFEDSGSGKNKARSSSGPKPLVRAKGAQGAAPGGGEARLGQQGSVPAPLALPSDPQLHQKNEDECAVCRDGGELICCDGCPRAFHLACLSPPLREIPSGTWRCSSCLQATVQEVQPRAEEPRPQEPPVETPLPPGLRSAGEEVRGPPGEPLAGMDTTLVYKHLPAPPSAAPLPGLDSSALHPLLCVGPEGQQNLAPGARCGVCGDGTDVLRCTHCAAAFHWRCHFPAGTSRPGTGLRCRSCSGDVTPAPVEGVLAPSPARLAPGPAKDDTASHEPALHRDDLESLLSEHTFDGILQWAIQSMARPAAPFPS

Variants of: B1
Assay: AIRE transcriptional activation functional score (insulin promoter-GFP; nonsense median 0, synonymous median 1) (normalised score); higher = higher AIRE activity (more reporter activation)
Conditions: with insulin promoter-GFP reporter in HEK293
Description: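 Deep mutational scan of full-length human AIRE (codon-optimized cDNA, DT-POPCode NNN libraries over three regions) integrated at a Bxb1 landing pad in HEK293 cells carrying an insulin core promoter-GFP reporter at a Flp-In site. Cells were sorted for the top 10% GFP about 14 days after transfection. Variant frequency log-ratios (select vs non-select, TileSeq) were rescaled so that the nonsense median is 0 and the synonymous median is 1, then averaged over biological replicates.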

AIRE transcriptional activation functional score, by site and new letter:
G277: I 1.24 ± 0.12 | E 1.3 ± 0.2 | H 0.919 ± 0.44 | L 0.959 ± 0.17 | A 1.46 ± 0.16 | P 0.526 ± 0.28 | N 1.2 ± 0.24 | R 1.21 ± 0.25 | V 1.1 ± 0.19 | S 0.459 ± 0.24 | T 0.758 ± 0.045 | F 1.23 ± 0.49 | Q 0.825 ± 0.064 | M 1.01 ± 0.086 | Y 0.553 ± 0.1 | K 1.22 ± 0.26 | C 1.38 ± 0.068
Q262: P 1.16 ± 0.29 | E 1.38 ± 0.083 | A 1.2 ± 0.35 | V 0.657 ± 0.24 | W 1.26 ± 0.043 | K 0.987 ± 0.24 | L 1.31 ± 0.12 | G 1.33 ± 0.34 | H 0.819 ± 0.2 | M 0.443 ± 0.11 | T 0.795 ± 0.28 | D 1.13 ± 0.15 | Y 1.05 ± 0.11 | S 0.84 ± 0.43 | R 0.909 ± 0.23 | N 1.13 ± 0.15 | I 1.04 ± 0.24 | C 0.939 ± 0.13 | F 1.61 ± 0.12
G267: T 1.8 ± 0.042 | P 0.902 ± 0.036 | R 0.84 ± 0.46 | N 0.868 ± 0.33 | A 0.9 ± 0.2 | V 1.12 ± 0.15 | L 0.938 ± 0.43 | Y 1.02 ± 0.5 | H 1.38 ± 0.073 | E 1.87 ± 0.092 | W 1.49 ± 0.051 | I 1.18 ± 0.053 | C 1.11 ± 0.2 | D 0.595 ± 0.051 | S 0.894 ± 0.4
Q275: W 1.74 ± 0.026 | M 1.04 ± 0.033 | S 0.826 ± 0.52 | E 1.26 ± 0.19 | H 1.01 ± 0.13 | K 1.06 ± 0.11 | R 1.03 ± 0.15 | G 0.894 ± 0.33 | Y 1.35 ± 0.22 | P 1.19 ± 0.28 | A 0.853 ± 0.14 | N 1.01 ± 0.25 | D 1.33 ± 0.19 | F 1.11 ± 0.12 | C 1.08 ± 0.075 | I 1.12 ± 0.15 | V 1.01 ± 0.2 | L 1.03 ± 0.14 | T 1.11 ± 0.33
G269: M 0.571 ± 0.041 | N 0.306 ± 0.089 | R 1.13 ± 0.27 | T 1.51 ± 0.13 | Q 0.849 ± 0.18 | D 0.649 ± 0.084 | V 1.05 ± 0.17 | A 1.39 ± 0.3 | H 0.996 ± 0.23 | L 1.36 ± 0.38 | K 1.07 ± 0.14 | F 1.42 ± 0.13 | Y 0.676 ± 0.18 | E 1.1 ± 0.19 | W 1.81 ± 0.065 | I 1.06 ± 0.24 | P 1.44 ± 0.093 | S 1.2 ± 0.23 | C 0.879 ± 0.44
G260: R 1.04 ± 0.27 | W 1.18 ± 0.024 | M 2.15 ± 0.087 | K 0.721 ± 0.25 | V 1.3 ± 0.18 | T 1.26 ± 0.17 | Y 1.14 ± 0.18 | L 1.29 ± 0.19 | H 1.19 ± 0.08 | N 1.12 ± 0.21 | F 0.949 ± 0.066 | S 1.12 ± 0.18 | I 1.39 ± 0.13
A264: P 0.912 ± 0.16 | K 0.671 ± 0.041 | T 1.22 ± 0.16 | R 1.05 ± 0.3 | V 1.07 ± 0.3 | W 1.57 ± 0.028 | L 1.18 ± 0.35 | M 1.01 ± 0.1 | D -0.0126 ± 0.12 | Y -0.0795 ± 0.11 | H 1.68 ± 0.053 | G 1.29 ± 0.26 | Q 0.566 ± 0.077 | E 0.901 ± 0.1 | F 1 ± 0.22 | C 0.799 ± 0.16 | I -1.66 ± 0.39 | S 1.18 ± 0.15
P266: L 0.925 ± 0.17 | A 1.01 ± 0.23 | R 0.795 ± 0.33 | E 0.486 ± 0.14 | V 0.93 ± 0.34 | C 1.09 ± 0.19 | I 1.13 ± 0.29 | N 0.956 ± 0.061 | K 1.19 ± 0.22 | G 0.877 ± 0.27 | T 1.05 ± 0.18 | M 1.44 ± 0.081 | H 1.08 ± 0.11 | S 0.824 ± 0.22 | W 0.984 ± 0.075 | Y 1.06 ± 0.22 | Q 0.916 ± 0.05 | F 1.38 ± 0.22 | D 0.85 ± 0.068
A271: M 1.38 ± 0.051 | W 1.6 ± 0.061 | F 0.885 ± 0.31 | E 1.1 ± 0.12 | N 1.11 ± 0.13 | Q 0.693 ± 0.16 | I 1.1 ± 0.18 | P 1.02 ± 0.28 | L 1.24 ± 0.29 | H 1.66 ± 0.047 | C 1 ± 0.56 | T 0.847 ± 0.23 | R 0.714 ± 0.37 | S 1.09 ± 0.17 | G 0.722 ± 0.38 | D 1.22 ± 0.21 | K 1.1 ± 0.14 | Y 0.83 ± 0.071 | V 1.09 ± 0.14
G268: I 1.19 ± 0.14 | C 1.21 ± 0.14 | D 0.854 ± 0.21 | E 1.14 ± 0.28 | M 1.12 ± 0.1 | T 0.742 ± 0.73 | W 1.62 ± 0.06 | P 0.869 ± 0.21 | A 0.981 ± 0.18 | F 1.38 ± 0.18 | S 1.09 ± 0.39 | R 1.09 ± 0.32 | N 0.988 ± 0.29 | V 1.02 ± 0.21 | Q 0.515 ± 0.043 | L 1.05 ± 0.19 | H 0.564 ± 0.047 | Y 0.298 ± 0.071 | K 0.831 ± 0.27
G274: P 0.734 ± 0.42 | W 1.46 ± 0.045 | Q 0.131 ± 0.15 | L 1 ± 0.27 | T 0.86 ± 0.15 | E 0.611 ± 0.097 | N 1 ± 0.34 | I 0.929 ± 0.32 | S 1.09 ± 0.32 | C 0.942 ± 0.21 | Y 1.07 ± 0.028 | D 1.14 ± 0.15 | H 1.4 ± 0.14 | F 0.89 ± 0.068 | V 1.05 ± 0.16 | K 1.24 ± 0.055 | A 0.889 ± 0.18 | R 0.983 ± 0.14
Q276: W 0.869 ± 0.12 | Y 1.26 ± 0.065 | R 0.822 ± 0.37 | L 0.779 ± 0.25 | M 1 ± 0.08 | T 1.14 ± 0.16 | A 1.12 ± 0.1 | S 0.925 ± 0.17 | C 1.26 ± 0.039 | H 1.26 ± 0.15 | V 0.873 ± 0.11 | P 1.05 ± 0.092 | I 1.83 ± 0.08 | N 1.52 ± 0.29 | D 1.11 ± 0.42 | E 0.831 ± 0.28 | G 1.39 ± 0.29 | F 1.05 ± 0.044 | K 0.954 ± 0.22
A261: L 0.746 ± 0.25 | K 0.843 ± 0.36 | M 1.19 ± 0.06 | D 0.731 ± 0.33 | N 0.506 ± 0.19 | I 0.612 ± 0.18 | T 1.07 ± 0.19 | Y 1.12 ± 0.31 | F 1.22 ± 0.052 | R 0.741 ± 0.37 | C 1.11 ± 0.27 | S 0.631 ± 0.26 | W 1.33 ± 0.27 | Q 1.17 ± 0.33 | H 0.579 ± 0.094 | E 1.11 ± 0.088 | G 1.01 ± 0.21 | P 1.06 ± 0.19 | V 1.13 ± 0.093
G263: E 1.42 ± 0.15 | R 0.812 ± 0.21 | C 0.73 ± 0.28 | V 1.25 ± 0.15 | S 1.23 ± 0.24 | D 1.31 ± 0.2 | Q -0.785 ± 0.52 | W 1.29 ± 0.019 | I -0.607 ± 0.28 | P 0.887 ± 0.21 | A 0.875 ± 0.26 | F 0.212 ± 0.052 | T 1.06 ± 0.28 | K 1.27 ± 0.067 | Y 1.34 ± 0.25 | L 0.99 ± 0.34 | M 0.957 ± 0.11 | H 0.227 ± 0.17
A265: M 1.55 ± 0.059 | T 1.01 ± 0.34 | D 0.751 ± 0.27 | W 0.598 ± 0.075 | R 0.748 ± 0.39 | P 0.806 ± 0.31 | V 1.11 ± 0.14 | H 0.76 ± 0.37 | C 0.821 ± 0.14 | Y 1.25 ± 0.06 | L 1.21 ± 0.35 | Q 0.479 ± 0.37 | I 0.975 ± 0.23 | K 0.641 ± 0.12 | N 1.54 ± 0.1 | S 1.03 ± 0.17 | F 1.53 ± 0.34 | E 0.963 ± 0.062 | G 0.964 ± 0.1
L273: I 1.07 ± 0.28 | K 0.434 ± 0.14 | Q 1.72 ± 0.43 | W 1.37 ± 0.051 | V 1.02 ± 0.25 | M 1.19 ± 0.068 | D 0.505 ± 0.15 | A 0.967 ± 0.28 | T 0.77 ± 0.41 | Y 1.28 ± 0.28 | G 0.95 ± 0.18 | H 0.264 ± 0.23 | S 0.975 ± 0.53 | N 0.862 ± 0.052 | R 0.646 ± 0.2 | F 0.977 ± 0.078 | P 1.11 ± 0.34 | C 0.741 ± 0.15 | E 0.817 ± 0.051
S278: D 0.859 ± 0.21 | F 1 ± 0.2 | A 0.851 ± 0.21 | G 1.34 ± 0.16 | C 0.735 ± 0.17 | E 0.763 ± 0.2 | H 1.22 ± 0.16
E270: K 0.735 ± 0.032 | W 1.36 ± 0.024 | H 1.56 ± 0.082 | Q 1.15 ± 0.33 | V 1.36 ± 0.34 | D 1.37 ± 0.18 | L 1.41 ± 0.26 | F 0.977 ± 0.13 | M 1.2 ± 0.07 | T 0.69 ± 0.38 | N 1.01 ± 0.45 | A 0.795 ± 0.25 | I 0.55 ± 0.37 | G 1.11 ± 0.2 | S 0.795 ± 0.13 | Y 1.38 ± 0.056 | P 1.64 ± 0.2 | C 1.08 ± 0.53 | R 0.723 ± 0.14
R272: G 0.842 ± 0.29 | C 1.3 ± 0.18 | W 0.893 ± 0.044 | E 1.08 ± 0.17 | H 0.444 ± 0.15 | T 0.941 ± 0.33 | V 0.896 ± 0.33 | Q 0.947 ± 0.41 | A 0.71 ± 0.27 | P 0.879 ± 0.33 | I 1.08 ± 0.23 | M 1.31 ± 0.061 | L 1.01 ± 0.29 | D 1.21 ± 0.23 | S 1.02 ± 0.3 | N 1.37 ± 0.067 | K 0.494 ± 0.23 | Y 0.677 ± 0.23 | F 1.09 ± 0.24
